{"source": "paper PMC12209146", "about": "(Cellular and Molecular Life Sciences: CMLS, 2025)", "target": "toxin B (TcdB) from Clostridioides difficile VPI 10,463 (Clostridioides difficile VPI 10,463, UniProt P18177 1-2366)", "sequence (P18177 whole entry)": "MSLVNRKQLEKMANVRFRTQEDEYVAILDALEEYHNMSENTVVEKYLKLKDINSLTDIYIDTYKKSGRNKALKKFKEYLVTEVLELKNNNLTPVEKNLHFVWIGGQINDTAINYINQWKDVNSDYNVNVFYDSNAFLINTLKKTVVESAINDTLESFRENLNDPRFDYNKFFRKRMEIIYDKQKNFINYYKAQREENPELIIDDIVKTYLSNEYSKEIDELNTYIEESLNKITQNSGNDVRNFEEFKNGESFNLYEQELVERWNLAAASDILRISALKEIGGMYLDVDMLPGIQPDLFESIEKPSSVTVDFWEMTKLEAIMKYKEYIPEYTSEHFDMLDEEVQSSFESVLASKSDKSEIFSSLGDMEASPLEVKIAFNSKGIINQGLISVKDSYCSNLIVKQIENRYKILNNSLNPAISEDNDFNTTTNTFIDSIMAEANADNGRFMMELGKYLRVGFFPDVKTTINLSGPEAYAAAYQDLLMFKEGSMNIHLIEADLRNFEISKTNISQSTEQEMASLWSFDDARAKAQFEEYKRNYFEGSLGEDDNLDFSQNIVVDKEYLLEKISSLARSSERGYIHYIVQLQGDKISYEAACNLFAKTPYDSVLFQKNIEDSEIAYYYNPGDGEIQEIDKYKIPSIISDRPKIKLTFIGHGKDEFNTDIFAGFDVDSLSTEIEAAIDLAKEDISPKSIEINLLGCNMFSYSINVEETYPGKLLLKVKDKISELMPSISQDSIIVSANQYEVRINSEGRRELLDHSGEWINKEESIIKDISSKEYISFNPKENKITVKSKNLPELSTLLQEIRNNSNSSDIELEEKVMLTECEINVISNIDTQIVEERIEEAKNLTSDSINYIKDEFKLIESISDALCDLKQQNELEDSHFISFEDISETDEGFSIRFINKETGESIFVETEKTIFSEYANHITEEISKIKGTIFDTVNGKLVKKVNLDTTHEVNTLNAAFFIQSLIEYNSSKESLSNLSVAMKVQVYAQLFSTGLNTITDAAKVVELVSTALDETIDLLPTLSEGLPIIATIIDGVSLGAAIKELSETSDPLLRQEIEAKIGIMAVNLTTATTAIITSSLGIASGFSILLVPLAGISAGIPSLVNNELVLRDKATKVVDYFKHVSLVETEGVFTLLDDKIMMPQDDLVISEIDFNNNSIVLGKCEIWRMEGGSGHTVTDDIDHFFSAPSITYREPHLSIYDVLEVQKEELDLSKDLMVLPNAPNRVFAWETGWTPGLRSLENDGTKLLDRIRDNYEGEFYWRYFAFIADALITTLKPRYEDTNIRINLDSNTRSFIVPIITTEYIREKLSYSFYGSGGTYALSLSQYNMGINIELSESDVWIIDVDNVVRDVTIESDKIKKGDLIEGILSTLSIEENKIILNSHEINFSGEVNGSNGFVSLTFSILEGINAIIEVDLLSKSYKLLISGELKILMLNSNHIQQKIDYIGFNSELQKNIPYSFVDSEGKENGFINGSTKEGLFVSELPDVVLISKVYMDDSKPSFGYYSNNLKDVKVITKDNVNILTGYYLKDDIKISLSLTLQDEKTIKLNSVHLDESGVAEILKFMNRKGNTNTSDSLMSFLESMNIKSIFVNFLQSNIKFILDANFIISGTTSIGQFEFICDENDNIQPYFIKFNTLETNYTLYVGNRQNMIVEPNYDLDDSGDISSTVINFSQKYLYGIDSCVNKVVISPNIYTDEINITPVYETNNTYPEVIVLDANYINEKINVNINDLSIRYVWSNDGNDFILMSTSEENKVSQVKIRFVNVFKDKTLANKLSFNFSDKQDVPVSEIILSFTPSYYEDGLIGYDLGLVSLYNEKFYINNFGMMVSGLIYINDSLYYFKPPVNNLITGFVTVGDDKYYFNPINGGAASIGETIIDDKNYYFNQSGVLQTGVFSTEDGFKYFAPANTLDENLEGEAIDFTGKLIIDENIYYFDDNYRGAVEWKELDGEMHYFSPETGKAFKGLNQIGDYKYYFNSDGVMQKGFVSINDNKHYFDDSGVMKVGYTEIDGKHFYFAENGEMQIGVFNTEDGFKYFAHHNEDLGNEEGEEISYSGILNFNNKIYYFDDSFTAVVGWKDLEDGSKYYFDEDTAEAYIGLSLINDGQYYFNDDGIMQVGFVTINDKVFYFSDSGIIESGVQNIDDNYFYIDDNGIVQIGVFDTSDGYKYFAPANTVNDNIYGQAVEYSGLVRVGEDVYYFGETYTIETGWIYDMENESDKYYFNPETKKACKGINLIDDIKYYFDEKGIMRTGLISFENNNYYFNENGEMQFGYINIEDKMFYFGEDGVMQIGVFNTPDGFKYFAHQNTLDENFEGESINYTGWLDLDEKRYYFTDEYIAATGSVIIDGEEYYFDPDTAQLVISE", "test": "co-sedimentation; in vitro precipitation assay: TcdB (50 ng, 2 ng/µl) with α-defensin-6 (6 µM) or Angie peptides (100 µM) in 25 µl PBS, 30 min at 37 °C; centrifuged 20 min, 14,000 rpm, 4 °C; supernatant and pellet immunoblotted for TcdB", "details": "both partners purified", "data": [{"binder": "AFTCHCRRSCYSTEYSYGTCTVMGINHRFCCL (peptide, UniProt Q01524 69-100, looked up)", "note": "[human peptide α-defensin-6]", "values": [{"measurement": "binding result", "value": "binds"}]}]}
